Source: patent US20200283478A1 (Genentech, published 2020)
Bridge positions count the residues as written; N and C are the ends. Square brackets hold non-standard residues; d marks the D form. Aun = NCCCCCCCCCCC(=O)O

B1: Compound 100 (Ac-CRLPWNLQRIGlPC-NH2) (peptide)
peptide: Ac-CRLPWNLQRIG[dL]PC-NH2
modifications: disulfide 1-14
SMILES: CC[C@H](C)[C@@H]1NC(=O)[C@H](CCCNC(=N)N)NC(=O)[C@H](CCC(N)=O)NC(=O)[C@H](CC(C)C)NC(=O)[C@H](CC(N)=O)NC(=O)[C@H](Cc2c[nH]c3ccccc23)NC(=O)[C@@H]2CCCN2C(=O)[C@H](CC(C)C)NC(=O)[C@H](CCCNC(=N)N)NC(=O)[C@@H](NC(C)=O)CSSC[C@@H](C(N)=O)NC(=O)[C@@H]2CCCN2C(=O)[C@@H](CC(C)C)NC(=O)CNC1=O
B2: Compound 101 (Ac-CRLPWNLQRiGLPC-NH2) (peptide)
peptide: Ac-CRLPWNLQR[dI]GLPC-NH2
modifications: disulfide 1-14
SMILES: CC[C@@H](C)[C@H]1NC(=O)[C@H](CCCNC(=N)N)NC(=O)[C@H](CCC(N)=O)NC(=O)[C@H](CC(C)C)NC(=O)[C@H](CC(N)=O)NC(=O)[C@H](Cc2c[nH]c3ccccc23)NC(=O)[C@@H]2CCCN2C(=O)[C@H](CC(C)C)NC(=O)[C@H](CCCNC(=N)N)NC(=O)[C@@H](NC(C)=O)CSSC[C@@H](C(N)=O)NC(=O)[C@@H]2CCCN2C(=O)[C@H](CC(C)C)NC(=O)CNC1=O
B3: Compound 102 (Ac-CRLPWNLQrIGLPC-NH2) (peptide)
peptide: Ac-CRLPWNLQ[dR]IGLPC-NH2
modifications: disulfide 1-14
SMILES: CC[C@H](C)[C@@H]1NC(=O)[C@@H](CCCNC(=N)N)NC(=O)[C@H](CCC(N)=O)NC(=O)[C@H](CC(C)C)NC(=O)[C@H](CC(N)=O)NC(=O)[C@H](Cc2c[nH]c3ccccc23)NC(=O)[C@@H]2CCCN2C(=O)[C@H](CC(C)C)NC(=O)[C@H](CCCNC(=N)N)NC(=O)[C@@H](NC(C)=O)CSSC[C@@H](C(N)=O)NC(=O)[C@@H]2CCCN2C(=O)[C@H](CC(C)C)NC(=O)CNC1=O
B4: Compound 103 (Ac-CRLPWNLqRIGLPC-NH2) (peptide)
peptide: Ac-CRLPWNL[dQ]RIGLPC-NH2
modifications: disulfide 1-14
SMILES: CC[C@H](C)[C@@H]1NC(=O)[C@H](CCCNC(=N)N)NC(=O)[C@@H](CCC(N)=O)NC(=O)[C@H](CC(C)C)NC(=O)[C@H](CC(N)=O)NC(=O)[C@H](Cc2c[nH]c3ccccc23)NC(=O)[C@@H]2CCCN2C(=O)[C@H](CC(C)C)NC(=O)[C@H](CCCNC(=N)N)NC(=O)[C@@H](NC(C)=O)CSSC[C@@H](C(N)=O)NC(=O)[C@@H]2CCCN2C(=O)[C@H](CC(C)C)NC(=O)CNC1=O
B5: Compound 104 (Ac-CRLPWNlQRIGLPC-NH2) (peptide)
peptide: Ac-CRLPWN[dL]QRIGLPC-NH2
modifications: disulfide 1-14
SMILES: CC[C@H](C)[C@@H]1NC(=O)[C@H](CCCNC(=N)N)NC(=O)[C@H](CCC(N)=O)NC(=O)[C@@H](CC(C)C)NC(=O)[C@H](CC(N)=O)NC(=O)[C@H](Cc2c[nH]c3ccccc23)NC(=O)[C@@H]2CCCN2C(=O)[C@H](CC(C)C)NC(=O)[C@H](CCCNC(=N)N)NC(=O)[C@@H](NC(C)=O)CSSC[C@@H](C(N)=O)NC(=O)[C@@H]2CCCN2C(=O)[C@H](CC(C)C)NC(=O)CNC1=O
B6: Compound 105 (Ac-CRLPWnLQRIGLPC-NH2) (peptide)
peptide: Ac-CRLPW[dN]LQRIGLPC-NH2
modifications: disulfide 1-14
SMILES: CC[C@H](C)[C@@H]1NC(=O)[C@H](CCCNC(=N)N)NC(=O)[C@H](CCC(N)=O)NC(=O)[C@H](CC(C)C)NC(=O)[C@@H](CC(N)=O)NC(=O)[C@H](Cc2c[nH]c3ccccc23)NC(=O)[C@@H]2CCCN2C(=O)[C@H](CC(C)C)NC(=O)[C@H](CCCNC(=N)N)NC(=O)[C@@H](NC(C)=O)CSSC[C@@H](C(N)=O)NC(=O)[C@@H]2CCCN2C(=O)[C@H](CC(C)C)NC(=O)CNC1=O
B7: Compound 106 (Ac-CRLPwNLQRIGLPC-NH2) (peptide)
peptide: Ac-CRLP[dW]NLQRIGLPC-NH2
modifications: disulfide 1-14
SMILES: CC[C@H](C)[C@@H]1NC(=O)[C@H](CCCNC(=N)N)NC(=O)[C@H](CCC(N)=O)NC(=O)[C@H](CC(C)C)NC(=O)[C@H](CC(N)=O)NC(=O)[C@@H](Cc2c[nH]c3ccccc23)NC(=O)[C@@H]2CCCN2C(=O)[C@H](CC(C)C)NC(=O)[C@H](CCCNC(=N)N)NC(=O)[C@@H](NC(C)=O)CSSC[C@@H](C(N)=O)NC(=O)[C@@H]2CCCN2C(=O)[C@H](CC(C)C)NC(=O)CNC1=O
B8: Compound 107 (Ac-CRLpWNLQRIGLPC-NH2) (peptide)
peptide: Ac-CRL[dP]WNLQRIGLPC-NH2
modifications: disulfide 1-14
SMILES: CC[C@H](C)[C@@H]1NC(=O)[C@H](CCCNC(=N)N)NC(=O)[C@H](CCC(N)=O)NC(=O)[C@H](CC(C)C)NC(=O)[C@H](CC(N)=O)NC(=O)[C@H](Cc2c[nH]c3ccccc23)NC(=O)[C@H]2CCCN2C(=O)[C@H](CC(C)C)NC(=O)[C@H](CCCNC(=N)N)NC(=O)[C@@H](NC(C)=O)CSSC[C@@H](C(N)=O)NC(=O)[C@@H]2CCCN2C(=O)[C@H](CC(C)C)NC(=O)CNC1=O
B9: Compound 83 (Ac-CRLPWNLQR-(Aun)-C-NH2) (peptide)
peptide: Ac-CRLPWNLQR[Aun]C-NH2
modifications: disulfide 1-11
SMILES: CC(=O)N[C@H]1CSSC[C@@H](C(N)=O)NC(=O)CCCCCCCCCCNC(=O)[C@H](CCCNC(=N)N)NC(=O)[C@H](CCC(N)=O)NC(=O)[C@H](CC(C)C)NC(=O)[C@H](CC(N)=O)NC(=O)[C@H](Cc2c[nH]c3ccccc23)NC(=O)[C@@H]2CCCN2C(=O)[C@H](CC(C)C)NC(=O)[C@H](CCCNC(=N)N)NC1=O

These binders were tested against T1, His-tagged, full-length PCSK9 (human, UniProt Q8NBP7 31-692) (assay: TR-FRET competition (PCSK9/EGF(A) assay); competitor EGF(A)-Fc;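 further: proximity signal from anti-His APC on PCSK9 paired with anti-Fc europium on the Fc ligand, read as normalized TR-FRET ratio across compound dilutions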).
T1 construct: secreted PCSK9 is autocatalytically cleaved into prodomain and catalytic domain + CRD (from S153), which stay associated; also called His-PCSK9; proprotein convertase subtilisin/kexin type 9; not shown: His tag
T1 sequence (Q8NBP7 31-692 limits assumed): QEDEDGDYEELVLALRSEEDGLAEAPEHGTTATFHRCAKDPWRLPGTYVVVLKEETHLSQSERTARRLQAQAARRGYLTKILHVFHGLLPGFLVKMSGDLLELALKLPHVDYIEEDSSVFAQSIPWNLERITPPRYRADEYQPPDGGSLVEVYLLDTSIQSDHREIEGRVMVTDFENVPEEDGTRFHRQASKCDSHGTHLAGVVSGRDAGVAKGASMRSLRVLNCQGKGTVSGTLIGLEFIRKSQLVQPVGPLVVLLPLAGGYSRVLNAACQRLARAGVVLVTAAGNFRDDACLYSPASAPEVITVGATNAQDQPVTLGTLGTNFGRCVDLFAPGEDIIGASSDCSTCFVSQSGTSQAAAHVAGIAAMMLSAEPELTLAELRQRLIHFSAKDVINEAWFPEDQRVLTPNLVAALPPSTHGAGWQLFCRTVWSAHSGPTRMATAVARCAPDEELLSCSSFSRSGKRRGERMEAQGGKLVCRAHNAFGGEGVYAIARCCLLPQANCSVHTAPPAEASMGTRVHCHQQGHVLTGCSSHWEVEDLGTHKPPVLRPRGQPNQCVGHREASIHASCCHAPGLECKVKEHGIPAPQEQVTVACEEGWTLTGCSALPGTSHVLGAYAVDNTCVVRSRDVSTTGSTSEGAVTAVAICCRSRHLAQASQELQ
B1 gave an IC50 greater than 50 µM.
B2 showed an IC50 greater than 50 µM.
B3 gave an IC50 greater than 50 µM.
In the case of B4, the IC50 is reported as greater than 50 µM.
Work on B5 yielded an IC50 greater than 50 µM.
With B6 the IC50 was greater than 50 µM.
B7 gave an IC50 greater than 50 µM.
In the case of B8, the IC50 is reported as greater than 50 µM.
With B9 the IC50 was greater than 50 µM.

These binders were tested against T2, proprotein convertase subtilisin/kexin type 9 (PCSK9) (human, UniProt Q8NBP7 31-692) (assay: phage spot ELISA).
T2 construct: His-tagged full-length PCSK9 in TR-FRET and SPR, biotinylated in phage ELISA; secreted protein is autoprocessed (prodomain plus catalytic/CRD chain starting at S153); also called rec.PCSK9; His-PCSK9
T2 sequence (Q8NBP7 other isoform, or with tags, fused parts or gaps limits assumed): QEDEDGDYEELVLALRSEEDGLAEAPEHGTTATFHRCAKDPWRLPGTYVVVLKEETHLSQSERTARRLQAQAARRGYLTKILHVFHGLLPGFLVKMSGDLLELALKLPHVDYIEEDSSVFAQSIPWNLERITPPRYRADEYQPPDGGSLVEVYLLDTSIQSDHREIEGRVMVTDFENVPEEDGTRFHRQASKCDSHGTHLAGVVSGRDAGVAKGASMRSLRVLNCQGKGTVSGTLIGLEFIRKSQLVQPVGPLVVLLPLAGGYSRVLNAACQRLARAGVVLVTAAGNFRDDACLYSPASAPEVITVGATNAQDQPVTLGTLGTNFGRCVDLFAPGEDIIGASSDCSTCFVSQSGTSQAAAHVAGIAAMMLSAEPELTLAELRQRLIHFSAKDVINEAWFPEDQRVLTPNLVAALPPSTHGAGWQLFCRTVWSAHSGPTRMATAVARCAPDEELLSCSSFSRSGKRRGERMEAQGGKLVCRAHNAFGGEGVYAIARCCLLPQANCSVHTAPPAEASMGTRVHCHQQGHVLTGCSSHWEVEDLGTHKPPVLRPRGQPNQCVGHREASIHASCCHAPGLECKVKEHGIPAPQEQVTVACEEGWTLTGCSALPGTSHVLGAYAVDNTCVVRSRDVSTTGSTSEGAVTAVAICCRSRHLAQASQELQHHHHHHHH
Source text: The binding signal of the same phage particle to NeutrAvidin was considered as non-specific binding (“noise”).
TAFTSWEEYLDWVGSGRGGYELNIPR [SEQ ID NO 326] gave an ELISA of 2.93 and a s/n ratio of 26.1.
Binder TAFTSWEEYLDWVGSGNCWSSLRGICENLG [SEQ ID NO 307] has an ELISA of 2.81 and a s/n ratio of 21.7.
TAFTSWEEYLDWVGSGTRYADRGVMVYSLS [SEQ ID NO 321] was tested, and the ELISA was 2.85 and the s/n ratio was 23.
With TAFTSWEEYLDWVGSGGPWNLNRV [SEQ ID NO 309] the ELISA was 2.68 and the s/n ratio was 27.6.
In the case of TAFTSWEEYLDWVGSGPLLWNLQKVH [SEQ ID NO 310], the ELISA is reported as 2.75 and the s/n ratio is reported as 23.5.
With TAFTSWEEYLDWVGSGSCSWNVERIRGCSV [SEQ ID NO 311] the ELISA was 2.92 and the s/n ratio was 18.8.
TAFTSWEEYLDWVGSGKLWNLTRISS [SEQ ID NO 312] was tested, and the ELISA was 2.87 and the s/n ratio was 28.1.
Work on TAFTSWEEYLDWVGSGVVLWNHSRIL [SEQ ID NO 313] yielded an ELISA of 2.95 and a s/n ratio of 26.8.
In the case of TAFTSWEEYLDWVGSGVPWNLARL [SEQ ID NO 314], the ELISA is reported as 2.82 and the s/n ratio is reported as 29.3.
In the case of TAFTSWEEYLDWVGSGVPWNLAKI [SEQ ID NO 315], the ELISA is reported as 2.69 and the s/n ratio is reported as 22.4.
With TAFTSWEEYLDWVGSGGHPLWNLSRI [SEQ ID NO 316] the ELISA was 2.73 and the s/n ratio was 25.7.
In the case of TAFTSWEEYLDWVGSGNELWNINRLRSS [SEQ ID NO 317], the ELISA is reported as 2.94 and the s/n ratio is reported as 12.
TAFTSWEEYLDWVGSGMPWNLARIER [SEQ ID NO 318] showed an ELISA of 2.86 and a s/n ratio of 27.8.
TAFTSWEEYLDWVGSGALWNMRRVESVAFR [SEQ ID NO 319] gave an ELISA of 3.09 and a s/n ratio of 23.9.
TAFTSWEEYLDWVGSGGEYLWNLKRLES [SEQ ID NO 320] gave an ELISA of 2.84 and a s/n ratio of 28.7.
TAFTSWEEYLDWVGSGMVYVDRGVRVFT [SEQ ID NO 322] gave an ELISA of 2.82 and a s/n ratio of 27.9.

What follows are binders tested against T3, PCSK9Δhelix (human, Chemically biotinylated in the phage ELISAs; the site is not given.) (assay: phage spot ELISA).
T3 construct: construct M1-Q692 with engineered TEV site, cleaved by TEV; also called His-PCSK9Δhelix; open groove PCSK9Δhelix
T3 sequence (prodomain, as listed by the source mutant limits assumed, chain 1 of 2): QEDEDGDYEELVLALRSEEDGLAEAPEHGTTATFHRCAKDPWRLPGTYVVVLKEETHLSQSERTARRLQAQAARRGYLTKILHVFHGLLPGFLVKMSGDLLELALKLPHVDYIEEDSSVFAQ
T3 sequence (chain, as listed by the source mutant limits assumed, chain 2 of 2): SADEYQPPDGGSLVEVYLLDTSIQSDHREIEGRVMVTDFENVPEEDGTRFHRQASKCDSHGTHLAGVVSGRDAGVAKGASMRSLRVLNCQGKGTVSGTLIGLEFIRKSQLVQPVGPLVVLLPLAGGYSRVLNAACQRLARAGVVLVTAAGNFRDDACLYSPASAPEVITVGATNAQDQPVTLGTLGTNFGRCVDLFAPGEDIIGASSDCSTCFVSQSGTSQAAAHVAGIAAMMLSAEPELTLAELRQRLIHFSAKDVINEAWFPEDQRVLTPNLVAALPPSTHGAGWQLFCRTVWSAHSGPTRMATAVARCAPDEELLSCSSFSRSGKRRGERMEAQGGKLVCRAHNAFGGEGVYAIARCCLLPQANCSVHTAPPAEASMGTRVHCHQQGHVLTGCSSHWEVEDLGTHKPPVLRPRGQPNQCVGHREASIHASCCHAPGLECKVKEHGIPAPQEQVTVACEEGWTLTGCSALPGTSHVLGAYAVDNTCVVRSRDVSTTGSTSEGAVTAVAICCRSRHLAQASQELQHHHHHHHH
Work on TAFTSWEEYLDWVGSGRGGYELNIPR [SEQ ID NO 326] yielded an ELISA of 2.69 and a s/n ratio of 18.8.
Binder TAFTSWEEYLDWVGSGNCWSSLRGICENLG [SEQ ID NO 307] has an ELISA of 2.91 and a s/n ratio of 22.5.
Binder TAFTSWEEYLDWVGSGTRYADRGVMVYSLS [SEQ ID NO 321] has an ELISA of 2.81 and a s/n ratio of 22.8.
TAFTSWEEYLDWVGSGGPWNLNRV [SEQ ID NO 309] showed an ELISA of 2.7 and a s/n ratio of 29.3.
TAFTSWEEYLDWVGSGPLLWNLQKVH [SEQ ID NO 310] gave an ELISA of 2.76 and a s/n ratio of 24.4.
In the case of TAFTSWEEYLDWVGSGSCSWNVERIRGCSV [SEQ ID NO 311], the ELISA is reported as 2.83 and the s/n ratio is reported as 26.
For TAFTSWEEYLDWVGSGKLWNLTRISS [SEQ ID NO 312], the ELISA was 2.69 and the s/n ratio was 25.8.
TAFTSWEEYLDWVGSGVVLWNHSRIL [SEQ ID NO 313] was tested, and the ELISA was 2.96 and the s/n ratio was 26.6.
In the case of TAFTSWEEYLDWVGSGVPWNLARL [SEQ ID NO 314], the ELISA is reported as 2.68 and the s/n ratio is reported as 27.3.
With TAFTSWEEYLDWVGSGVPWNLAKI [SEQ ID NO 315] the ELISA was 2.67 and the s/n ratio was 24.1.
TAFTSWEEYLDWVGSGGHPLWNLSRI [SEQ ID NO 316] was tested, and the ELISA was 2.6 and the s/n ratio was 9.12.
TAFTSWEEYLDWVGSGNELWNINRLRSS [SEQ ID NO 317] gave an ELISA of 2.76 and a s/n ratio of 13.2.
Binder TAFTSWEEYLDWVGSGMPWNLARIER [SEQ ID NO 318] has an ELISA of 3 and a s/n ratio of 30.3.
Binder TAFTSWEEYLDWVGSGALWNMRRVESVAFR [SEQ ID NO 319] has an ELISA of 3.04 and a s/n ratio of 20.1.
With TAFTSWEEYLDWVGSGGEYLWNLKRLES [SEQ ID NO 320] the ELISA was 2.94 and the s/n ratio was 26.
In the case of TAFTSWEEYLDWVGSGMVYVDRGVRVFT [SEQ ID NO 322], the ELISA is reported as 2.71 and the s/n ratio is reported as 25.1.

Molecular target: T2, proprotein convertase subtilisin/kexin …
Experiment: phage spot ELISA
Remark: another data set of the same source
Work on TAFTSWEEYLDWVGSGRGGYELNIPR [SEQ ID NO 326] yielded an ELISA of 3.13 and a s/n ratio of 29.8.
TAFTSWEEYLDWVGSGTRYADRGVMVYSLS [SEQ ID NO 321] was tested, and the ELISA was 3.03 and the s/n ratio was 30.3.

Molecular target: T3, PCSK9Δhelix
Experiment: phage spot ELISA
Remark: another data set of the same source
TAFTSWEEYLDWVGSGRGGYELNIPR [SEQ ID NO 326] showed an ELISA of 2.92 and a s/n ratio of 25.6.
Binder TAFTSWEEYLDWVGSGTRYADRGVMVYSLS [SEQ ID NO 321] has an ELISA of 3.03 and a s/n ratio of 27.5.
